In US20060222593A1:
“And” between values parts separate entries of the source, which are not always exact repeats. Equal entries are not always repeated. Where two headings read alike, the source gives them in different places. Square brackets hold non-standard residues; d marks the D form. Ends that are not written are not given here.

Tests used:
[1] = target: T1, ST receptor (rat intestinal membrane) (rat), P23897; test: radioligand competition binding against [125I]ST1-17 on rat intestinal membrane
T1 chain: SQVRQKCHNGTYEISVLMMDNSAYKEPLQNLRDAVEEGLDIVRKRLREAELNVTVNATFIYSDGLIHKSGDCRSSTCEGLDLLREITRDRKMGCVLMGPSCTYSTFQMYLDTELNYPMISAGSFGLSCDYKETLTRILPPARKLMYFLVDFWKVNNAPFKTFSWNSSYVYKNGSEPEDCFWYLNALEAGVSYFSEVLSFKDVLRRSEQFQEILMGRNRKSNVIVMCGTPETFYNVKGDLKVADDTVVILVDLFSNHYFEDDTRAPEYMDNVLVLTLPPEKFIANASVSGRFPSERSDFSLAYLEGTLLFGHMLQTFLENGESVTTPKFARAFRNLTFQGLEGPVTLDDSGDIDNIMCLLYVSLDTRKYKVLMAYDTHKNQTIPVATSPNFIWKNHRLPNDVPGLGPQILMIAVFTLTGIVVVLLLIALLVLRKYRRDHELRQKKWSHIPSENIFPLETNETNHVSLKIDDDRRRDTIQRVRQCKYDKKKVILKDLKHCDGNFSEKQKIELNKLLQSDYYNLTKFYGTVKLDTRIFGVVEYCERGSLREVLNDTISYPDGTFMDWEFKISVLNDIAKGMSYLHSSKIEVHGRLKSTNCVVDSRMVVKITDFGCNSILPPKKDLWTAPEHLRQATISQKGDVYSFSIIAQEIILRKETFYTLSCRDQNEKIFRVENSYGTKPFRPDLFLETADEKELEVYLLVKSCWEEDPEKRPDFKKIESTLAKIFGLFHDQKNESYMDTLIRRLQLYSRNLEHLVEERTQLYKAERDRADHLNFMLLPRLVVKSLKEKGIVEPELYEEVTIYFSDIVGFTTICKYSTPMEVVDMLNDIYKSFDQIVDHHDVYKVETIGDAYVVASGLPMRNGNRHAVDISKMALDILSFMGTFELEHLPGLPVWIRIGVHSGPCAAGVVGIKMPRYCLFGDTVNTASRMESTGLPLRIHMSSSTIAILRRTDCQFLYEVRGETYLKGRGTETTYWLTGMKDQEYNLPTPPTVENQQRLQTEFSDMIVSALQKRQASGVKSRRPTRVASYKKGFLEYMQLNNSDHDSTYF

[2] = target: T1, ST receptor (rat intestinal membrane) …; test: radioactive binding assay, labelled compound ca. 0.05 nM on rat intestinal membrane, filtration
[3] = target: T1, ST receptor (rat intestinal membrane) …

Binder | Ki [1] [nM] | also measured
KKKKKKGCCELCCNPACAGCY (modifications not checked) [CA1-(Lys)6-Gly-ST5-18] | 72 | 
CCELCCNPACAGCY (modifications not checked) [CA3-ST5-18] | 0.8 | 
CCELCCNPACAGCY (modifications not checked) [ST5-18] | 0.4 | 
CCELCCNPACAGCY (modifications not checked) [99mTc-labelled CA1-ST5-18] |  | binding, % of total added [2]: 6%
GGG[dE][dE][dE]CCELCCNPACAGCY (not fully specified (N-terminus); cysteine pairing not given here) [CA1-(Gly)3-(D-Glu)3-ST5-18] | 1 | 
CCELCCNPACAGCY (modifications not checked) [CA1-ST5-18] | 2.8 | Ki [3]: 2.8 nM and 3.5 nM; fold reduction in binding efficacy against the unconjugated ST peptide [1]: 10 fold
